Results: patent publication US5985822A, “Inhibition of glial cell proliferation with N-CAM homophilic peptides” (The Scripps Research Institute, priority 1995, dated 1999)

System: tyrosine phosphorylated proteins (60-70 kDa and approximately 120 kDa)
Assay: Anti-phosphotyrosine immunoprecipitation and immunoblot of bFGF-stimulated astrocytes
Assay type: cell-based, rat
Settings: N-CAM 2 μg/ml 30 minutes, then bFGF 100 ng/ml 10 minutes
Method: Astrocyte cells were seeded at a density of 7×10^4 /cm^2 in a 100 mm tissue culture dish in Dulbecco's modified essential medium (DMEM) containing 10% fetal calf serum and gentamycin (5 μg/ml) at 37 degrees C with 7% CO2. After overnight culture, the medium was replaced with serum-free medium and the cells are cultured for an additional 48 hr. The serum-starved cells were treated for 30 minutes in the presence of N-CAM (2 μg/ml) or buffer alone and then stimulated for 10 minutes with bFGF (100 ng/ml) to stimulate tyrosine phosphorylation through the FGF receptor. […]
Immunoblotting was performed by incubation with the indicated antibodies followed by ^125 I-labeled protein A; the resulting autoradiogram was exposed for 14 hr on XAR film at -70° C. or scanned on a Molecular Dynamics PhosphorImager (Sunnyvale, Calif.). The amount of reactivity with antibodies to phosphotyrosine relative to the amount of reactivity with antibodies to each specific protein can be calculated from imaging these gel blots, in extracts from N-CAM treated cells vs. non treated cells. This determines whether the FGF receptor or other proteins analyzed in this same paradigm are changed in their levels of tyrosine phosphorylation upon N-CAM treatment.

B1: N-CAM: neural cell adhesion molecule purified from early postnatal rat brains by affinity chromatography, mainly polysialylated embryonic form (protein, UniProt P13596 20-858, looked up)
Neural cell adhesion molecule …: LQVDIVPSQGEISVGESKFFLCQVAGDAKDKDISWFSPNGEKLSPNQQRISVVWNDDDSSTLTIYNANIDDAGIYKCVVTAEDGTQSEATVNVKIFQKLMFKNAPTPQEFKEGEDAVIVCDVVSSLPPTIIWKHKGRDVILKKDVRFIVLSNNYLQIRGIKKTDEGTYRCEGRILARGEINFKDIQVIVNVPPTVQARQSIVNATANLGQSVTLVCDADGFPEPTMSWTKDGEPIENEEEDDEKHIFSDDSSELTIRNVDKNDEAEYVCIAENKAGEQDASIHLKVFAKPKITYVENQTAMELEEQVTLTCEASGDPIPSITWRTSTRNISSEEKASWTRPEKQETLDGHMVVRSHARVSSLTLKSIQYTDAGEYICTASNTIGQDSQSMYLEVQYAPKLQGPVAVYTWEGNQVNITCEVFAYPSATISWFRDGQLLPSSNYSNIKIYNTPSASYLEVTPDSENDFGNYNCTAVNRIGQESLEFILVQADTPSSPSIDRVEPYSSTAQVQFDEPEATGGVPILKYKAEWKSLGEEAWHSKWYDAKEANMEGIVTIMGLKPETRYAVRLAALNGKGLGEISAATEFKTQPVREPSAPKLEGQMGEDGNSIKVNLIKQDDGGSPIRHYLVKYRALASEWKPEIRLPSGSDHVMLKSLDWNAEYEVYVVAENQQGKSKAAHFVFRTSAQPTAIPANGSPTAGLSTGAIVGILIVIFVLLLVVMDITCYFLNKCGLLMCIAVNLCGKAGPGAKGKDMEEGKAAFSKDESKEPIVEVRTEEERTPNHDGGKHTEPNETTPLTEPEKGPVETKSEPQESEAKPAPTEVKTVPNEATQTKENESKA
modifications: polysialylated embryonic form
- tyrosine phosphorylation of a 60-70 kDa protein and a protein at approximately 120 kDa: diminished tyrosine phosphorylation
